Assay results from paper doi:10.1101/2025.11.20.689565.
Where a chain is given by its changes, count along the chain named. Names and notes keep the numbering of the source. One block for each binder: values may come before it.

Experiments:
[1] = target: T1, C. elegans γ-tubulin complex (γTuC): γ-tubulin TBG-1, GCP2 GIP-2-5Myc, GCP3 GIP-1 and MZT-1, P34475;G5EF84; assay: pull-down on γTuC-coated beads, anti-MBP immunoblot; details: chain shown with the change, binding 2 hours at 4°C, scale: band intensity relative to SPD-5 1-113 without PLK1
T1 sequence (chain, as listed by the source, chain 1 of 4): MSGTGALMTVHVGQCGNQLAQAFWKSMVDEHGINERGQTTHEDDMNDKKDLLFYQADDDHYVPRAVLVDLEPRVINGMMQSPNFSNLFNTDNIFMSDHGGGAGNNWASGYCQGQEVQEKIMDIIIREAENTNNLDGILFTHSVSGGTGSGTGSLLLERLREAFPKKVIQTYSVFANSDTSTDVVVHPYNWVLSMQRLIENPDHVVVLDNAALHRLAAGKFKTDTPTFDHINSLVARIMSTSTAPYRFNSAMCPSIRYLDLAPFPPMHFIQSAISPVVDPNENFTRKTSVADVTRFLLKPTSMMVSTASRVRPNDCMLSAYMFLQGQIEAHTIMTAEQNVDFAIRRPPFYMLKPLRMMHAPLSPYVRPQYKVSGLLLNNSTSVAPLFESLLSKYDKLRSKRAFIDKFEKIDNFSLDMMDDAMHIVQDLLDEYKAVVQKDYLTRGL
T1 sequence (chain, as listed by the source, chain 2 of 4): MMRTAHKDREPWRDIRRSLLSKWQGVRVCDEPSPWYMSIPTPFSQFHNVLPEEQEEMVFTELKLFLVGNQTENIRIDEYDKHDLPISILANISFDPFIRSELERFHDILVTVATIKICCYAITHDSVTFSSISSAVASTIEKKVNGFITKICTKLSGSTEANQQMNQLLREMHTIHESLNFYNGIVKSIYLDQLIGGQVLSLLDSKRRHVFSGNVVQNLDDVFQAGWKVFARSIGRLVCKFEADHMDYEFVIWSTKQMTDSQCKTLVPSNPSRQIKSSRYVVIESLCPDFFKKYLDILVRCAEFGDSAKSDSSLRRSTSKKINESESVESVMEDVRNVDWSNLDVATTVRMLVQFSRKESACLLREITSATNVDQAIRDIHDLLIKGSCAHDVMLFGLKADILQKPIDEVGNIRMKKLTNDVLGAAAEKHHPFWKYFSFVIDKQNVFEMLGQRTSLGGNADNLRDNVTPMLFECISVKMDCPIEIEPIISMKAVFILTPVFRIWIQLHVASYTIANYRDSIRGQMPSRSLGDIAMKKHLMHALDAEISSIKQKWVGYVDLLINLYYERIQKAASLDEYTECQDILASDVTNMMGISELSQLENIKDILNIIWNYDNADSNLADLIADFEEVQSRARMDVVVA
T1 sequence (chain, as listed by the source, chain 3 of 4): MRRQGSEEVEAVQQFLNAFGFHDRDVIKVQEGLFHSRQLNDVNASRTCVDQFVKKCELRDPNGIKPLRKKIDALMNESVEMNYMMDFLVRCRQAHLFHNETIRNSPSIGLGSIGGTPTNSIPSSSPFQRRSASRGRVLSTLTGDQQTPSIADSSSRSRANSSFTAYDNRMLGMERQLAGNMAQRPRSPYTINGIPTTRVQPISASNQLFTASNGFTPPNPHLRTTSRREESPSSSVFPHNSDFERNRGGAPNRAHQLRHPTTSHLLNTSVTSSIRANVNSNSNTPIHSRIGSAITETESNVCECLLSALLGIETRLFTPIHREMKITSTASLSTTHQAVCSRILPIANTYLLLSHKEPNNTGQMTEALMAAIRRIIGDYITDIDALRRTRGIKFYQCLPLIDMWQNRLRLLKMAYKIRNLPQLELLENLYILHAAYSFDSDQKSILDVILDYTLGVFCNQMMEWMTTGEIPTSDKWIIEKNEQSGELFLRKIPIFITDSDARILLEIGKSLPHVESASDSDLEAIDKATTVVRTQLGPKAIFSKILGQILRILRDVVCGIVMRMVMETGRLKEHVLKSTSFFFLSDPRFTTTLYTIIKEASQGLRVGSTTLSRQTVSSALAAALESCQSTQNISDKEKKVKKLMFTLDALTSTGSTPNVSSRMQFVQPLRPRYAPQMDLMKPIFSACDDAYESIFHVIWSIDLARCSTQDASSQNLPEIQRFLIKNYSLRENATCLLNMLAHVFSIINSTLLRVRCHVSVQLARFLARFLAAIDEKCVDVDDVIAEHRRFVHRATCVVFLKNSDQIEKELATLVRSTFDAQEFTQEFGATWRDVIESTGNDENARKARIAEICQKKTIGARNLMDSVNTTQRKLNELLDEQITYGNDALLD
T1 sequence (chain, as listed by the source, chain 4 of 4): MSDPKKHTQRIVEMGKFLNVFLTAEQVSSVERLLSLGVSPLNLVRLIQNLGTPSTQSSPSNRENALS

[2] = target: T1, C. elegans γ-tubulin complex (γTuC): …; assay: pull-down on γTuC-coated beads, anti-SPD-5 immunoblot; details: chain shown with the change, binding 2 hours at 4°C, scale: band intensity relative to SPD-5 135-473 without PLK1
[3] = +PLK1 preincubation (2.0 μM fragment, 500 nM PLK1(T194D), 0.2 mM ATP, 1 hour at 23°C), 75 nM SPD-5 …

B1: MBP-6His-HA (M6HH)-tagged SPD-5 aa 1-113, PLK1-phosphorylated, P91349 S5A; S11A (protein)
chain: MEDNAVLNEDANLEHVEGQPRRSMSQPVLNVEGDKRTSSTSATQQQVLSGAFSSADVRSIPIIQTWEENKALKTKITILRGELQMYQRRYSEAKEASQKRVKEVMDDYVDLKL
response [1, 3]: 4.7

B2: MBP-6His-HA (M6HH)-tagged SPD-5 aa 1-113, not phosphorylated, P91349 S5A; S11A (protein)
chain: B1 chain
response ([1]; no PLK1, 75 nM SPD-5 fragment): 0.6

B3: untagged SPD-5 aa 135-473, PLK1-phosphorylated, P91349 S170A; T178A; T198A (protein)
chain: MQSRIETSEDNFARQMKEFEAQKHAMEERIKELELAATDANNTAVGSFRGTLDDILKKNDPDFALTSGYEERKINDLEAKLLSEIDKVAELEDHIQQLRQELDDQSARLADSENVRAQLEAATGQGILGAAGNAMVPNSTFMIGNGRESQTRDQLNYIDDLETKLADAKKENDKARQALVEYMNKCSKLEHEIRTMVKNSTFDSSSMLLGGQTSDELKIQIGKVNGELNVLRAENRELRIRCDQLTGGDGNLSISLGQSRLMAGIATNDVDSIGQGNETGGTSMRILPRESQLDDLEESKLPLMDTSSAVRNQQQFASMWEDFESVKDSLQNNHNDTLE
response [2, 3]: 0.1

B4: untagged SPD-5 aa 135-473, PLK1-phosphorylated, P91349 S170A; T178A; T198A; T274A; T335A; S339A; S340A (protein)
chain: B3 chain with T140A, T201A, S205A, S206A
response [2, 3]: 0

Now from value to binder:

response ([2]; no PLK1, 75 nM SPD-5 fragment): 0.1
B5: untagged SPD-5 aa 135-473, not phosphorylated, P91349 T274A; T335A; S339A; S340A (protein)
chain: B3 chain with A36S, A44T, A64T, T140A, T201A, S205A, S206A

response ([2]; no PLK1, 75 nM SPD-5 fragment): 0.7
B6: untagged SPD-5 aa 135-473, not phosphorylated, P91349 S170A; T178A; T198A (protein)
chain: B3 chain

response ([2]; no PLK1, 75 nM SPD-5 fragment): 0.1
B7: untagged SPD-5 aa 135-473, not phosphorylated, P91349 S170A; T178A; T198A; T274A; T335A; S339A; S340A (protein)
chain: B3 chain with T140A, T201A, S205A, S206A

response [2, 3]: 2.8
B8: untagged SPD-5 aa 135-473, PLK1-phosphorylated, P91349 T274A; T335A; S339A; S340A (protein)
chain: B3 chain with A36S, A44T, A64T, T140A, T201A, S205A, S206A
